# From patent publication US20090202526A1 (RINAT NEUROSCIENCE, published 2009)
# How the values were obtained:
# [1] = biological target: T1, Human trkC-Fc fusion protein (human, UniProt Q16288 32-429); assay: BIAcore SPR, Fab over immobilised human trkC-Fc
# T1 construct: Immobilised on CM5 chip for BIAcore; also called htrkC; not shown: Fc part not described
# Description: (§1) Affinities of anti-trkC Fabs and monoclonal antibodies were determined using the BIAcore 3000™ surface plasmon resonance (SPR) system (BIAcore, INC, Piscaway N.J.). CM5 chips were activated with N-ethyl-N′-(3-dimethylaminopropyl)-carbodiimide hydrochloride (EDC) and N-hydroxysuccinimide (NHS) according to the supplier's instructions. Human or rat trkC-Fc fusion protein was diluted into 10 mM sodium acetate pH 5.0 and injected over the activated chip at a concentration of 0.005 mg/mL. Using variable flow time across the individual chip channels, two ranges of antigen density were achieved: 200-400 response units (RU) for detailed kinetic studies and 500-1000 RU for screening assays. The chip was blocked with ethanolamine. […] HBS-EP buffer (0.01M HEPES, pH 7.4, 0.15 NaCl, 3 mM EDTA, 0.005% Surfactant P20) was used as running buffer for all the BIAcore assays. […] The concentrations of the Fab proteins are determined by ELISA and/or SDS-PAGE electrophoresis using a Fab of known concentration (as determined by amino acid analysis) as a standard. Kinetic association rates (kₒₙ) and dissociation rates (koff) are obtained simultaneously by fitting the data to a 1:1 Langmuir binding model (Karlsson, R. Roos, H. Fagerstam, L. Petersson, B. (1994). Methods Enzymology 6. 99-110) using the BlAevaluation program. Equilibrium dissociation constant (KD) values are calculated as koff/kₒₙ.
# We prepared antibody clones bearing the CDR and/or framework region substitution mutations shown in Table 1 and determine KD and other kinetic parameters using BIAcore analysis as described herein.
# [2] = biological target: T1, Human trkC-Fc fusion protein; assay: BIAcore SPR, human trkC-Fc on chip; KD calculated from koff with 2256 kon 5E5 1/Ms
# [3] = biological target: T2, Rat trkC-Fc fusion protein (rat, UniProt Q03351 32-429); assay: BIAcore SPR, Fab over immobilised rat trkC-Fc
# T2 construct: Immobilised on CM5 chip for BIAcore; not shown: Fc part not described
# Description: as §1
koff [1],Kd [2],Kd [1],kon [1],Kd [3],koff [3],kon [3],Binder
0.0016 s⁻¹,3 nM,,,,,,"Fab clone 129(T8) (Fab, V domains shown) VH: QVQLVQSGAEVKKPGASVKVSCKASGYTFTSYWMHWVRQAPGQGLEWMGEIYPSNGRTNYNEKFKSRATMTGDKSTSTVYMELSSLRSEDTAVYYCARKYYYGNSRRSWYFDVWGQGTTVTVS VL: DIQMTQSPSSLSASVGDRVTITCRASESVDNYGISFMNWYQQKPGKAPKLLIYAASNQGSGVPSRFSGSGSGTDFTFTISSLQPEDIATYYCQQSKTVPRTFGQGTKLEIKR"
0.00036 s⁻¹,,0.25 nM,1.4e+06 M⁻¹ s⁻¹,6 nM,0.0094 s⁻¹,1.5e+06 M⁻¹ s⁻¹,"Fab clone 129(T8)(H8xE10)(10B)(E2) (Fab, V domains shown) VH: QVQLVQSGAEVKKPGASVKVSCKASGYTFTSYRIHWVRQAPGQGLEWMGEIYPSNGRTNYNEKFKSRVTMTRDTSTSTVYMELSSLRSEDTAVYYCARKYYYGNTRRSWYFDVWGQGTTVTVS VL: DIQMTQSPSSLSASVGDRVTITCRASESIDNYGISFLAWYQQKPGKAPKLLIYAASNRGSGVPSRFSGSGSGTDFTFTISSLQPEDIATYYCQQSKTVPRTFGQGTKLEIKR"
0.0025 s⁻¹,4.7 nM,,,,,,"Fab clone 129(C16) (Fab, V domains shown) VH: QVQLVQSGAEVKKPGASVKVSCKASGYTFTSYWMHWVRQAPGQGLEWMGEIYPSNGRTNYNEKFKSRVTMTLDTSTSTVYMQLSSLRSEDTAVYYCARKYYYGNSKRSWYFDVWGQGTTVTVS VL: DIQMTQSPSSLSASVGDRVTITCRASESVDNYGISFMNWYQQKPGKPPKLLMYAASNQGSGVPSRFSGSGSGTDFTFTISSLQPEDIATYYCQQSKEVPRTFGQGTKLEIKR"
0.0019 s⁻¹,3.6 nM,,,,,,"Fab clone 129(C28) (Fab, V domains shown) VH: QVQLVQSGAEVKKPGASVKVSCKASGYTFTSYWMHWVRQAPGQGLEWMGEIYPSNGRTNYNEKFKSRATMTGDTSTSTVYMQLSSLRSEDTAVYYCARKYYYGNSQRSWYFDVWGQGTTVTVS VL: DIQMTQSPSSLSASVGDRVTITCRASESVDNYGISFMNWYQQKPGQAPKLLIYAASNQGSGVPSRFSGSGSGTDFTFTISSLQPEDIATYYCQQSKTVPRTFGQGTKLEIKR"
0.0006 s⁻¹,1.2 nM,,,,,,"Fab clone 129(T8)(H8) (Fab, V domains shown) VH: QVQLVQSGAEVKKPGASVKVSCKASGYTFTSYRIHWVRQAPGQGLEWMGEIYPSNSRTNYNEKFKSRATMTGDKSTSTVYMELSSLRSEDTAVYYCARKYYYGNSRRSWYFDVWGQGTTVTVS VL: DIQMTQSPSSLSASVGDRVTITCRASESVDNYGISFMTWYQQKPGKAPKLLIYAASNLGSGVPSRFSGSGSGTDFTFTISSLQPEDIATYYCQQSKTVPRTFGQGTKLEIKR"
0.0009 s⁻¹,1.8 nM,,,,,,"Fab clone 129(T8)(E12) (Fab, V domains shown) VH: QVQLVQSGAEVKKPGASVKVSCKASGYTFTSYWLHWVRQAPGQGLEWMGEIYPSNSRTNYNEKFKSRATMTGDKSTSTVYMELSSLRSEDTAVYYCARKYYYGNSRRSWYFDVWGQGTTVTVS VL: DIQMTQSPSSLSASVGDRVTITCRASESVDSYGISFMNWYQQKPGKAPKLLIYAASNLGSGVPSRFSGSGSGTDFTFTISSLQPEDIATYYCQQSKTVPRTFGQGTKLEIKR"
0.0016 s⁻¹,3.2 nM,,,,,,"Fab clone 129(T8)(E10) (Fab, V domains shown, Light chain changes are the same as in A5) VH: QVQLVQSGAEVKKPGASVKVSCKASGYTFTSYRLHWVRQAPGQGLEWMGEIYPSNGRTNYNEKFESRATMTGDKSTSTVYMELSSLRSEDTAVYYCARKYYYGNSRRSWYFDVWGQGTTVTVS VL: DIQMTQSPSSLSASVGDRVTITCRASESIDNYGISFLAWYQQKPGKAPKLLIYAASNRGSGVPSRFSGSGSGTDFTFTISSLQPEDIATYYCQQSKTVPRTFGQGTKLEIKR"
0.0017 s⁻¹,3.2 nM,,,,,,"Fab clone 129(C14) (Fab, V domains shown) VH: QVQLVQSGAEVKKPGASVKVSCKASGYTFTSYWMHWVRQAPGQGLEWMGEIYPSNGRTNYNEKFKSRVTMTRDKSTSTVYMHLSSLRSEDTAVYYCARKYYYGNSRRSWYFDVWGQGTTVTVS VL: DIQMTQSPSSLSASVGDRVTITCRASESVDNYGISFMNWYQQKPGQAPKLLIYAASNQGSGVPSRFSGSGSGTDFTFTISSLQPEDIATYYCQQSKEVPRTFGQGTKLEIKR"
0.00047 s⁻¹,,1.1 nM,420000 M⁻¹ s⁻¹,39 nM,0.03 s⁻¹,780000 M⁻¹ s⁻¹,"Fab clone 129(T8)(H8xE10)(10B)(C7) (Fab, V domains shown) VH: QVQLVQSGAEVKKPGASVKVSCKASGYTFTSYRIHWVRQAPGQGLEWMGEIYPSNTRTNYNEKFKSRVTMTRDTSTSTVYMELSSLRSEDTAVYYCARKYYYGNTRRSWYFDVWGQGTTVTVS VL: DIQMTQSPSSLSASVGDRVTITCRASESIDNYGISFLAWYQQKPGKAPKLLIYAASNRGSGVPSRFSGSGSGTDFTFTISSLQPEDIATYYCQQSKTVPRTFGQGTKLEIKR"
0.007 s⁻¹,13.2 nM,,,,,,"Fab clone 129(C26) (Fab, V domains shown) VH: QVQLVQSGAEVKKPGASVKVSCKASGYTFTSYWMHWVRQAPGQGLEWMGEIYPSNGRTNYNEKFKSRVTMTGDKSTSTVYMELSSLRSEDTAVYYCARKYYYGNSSRSWYFDVWGQGTTVTVS VL: DIQMTQSPSSLSASVGDRVTITCRASESVDNYGISFMNWYQQKPGQAPKLLIYAASNQGSGVPSRFSGSGSGTDFTFTISSLQPEDIATYYCQQSKSVPRTFGQGTKLEIKR"
0.0025 s⁻¹,4.7 nM,,,,,,"Fab clone 129(C2) (Fab, V domains shown) VH: QVQLVQSGAEVKKPGASVKVSCKASGYTFTSYWMHWVRQAPGQGLEWMGEIYPSNGRTNYNEKFKSRVTMTGDTSTSTVYMQLSSLRSEDTAVYYCARKYYYGNSKRSWYFDVWGQGTTVTVS VL: DIQMTQSPSSLSASVGDRVTITCRASESVDNYGISFMNWYQQKPGQPPKLLIYAASNQGSGVPSRFSGTGSGTDFTFTISSLQPEDIATYYCQQSKEVPRTFGQGTKLEIKR"
0.002 s⁻¹,3.8 nM,,,,,,"Fab clone 129(C36) (Fab, V domains shown) VH: QVQLVQSGAEVKKPGASVKVSCKASGYTFTSYWMHWVRQAPGQGLEWMGEIYPSNGRTNYNEKFKSRVTMTLDKSTSTVYMQLSSLRSEDTAVYYCARKYYYGNSRRSWYFDVWGQGTTVTVS VL: DIQMTQSPSSLSASVGDRVTITCRASESVDNYGISFMNWYQQKPGKPPKLLIYAASNQGSGVPSRFSGSGSGTDFTFTISSLQPEDIATYYCQQSKAVPRTFGQGTKLEIKR"
0.0012 s⁻¹,2.3 nM,,,,,,"Fab clone 129(T26) (Fab, V domains shown) VH: QVQLVQSGAEVKKPGASVKVSCKASGYTFTSYWMHWVRQAPGQGLEWMGEIYPSNGRTNYNEKFKSRVTMTLDKSTSTVYMQLSSLRSEDTAVYYCARKYYYGNSRRSWYFDVWGQGTTVTVS VL: DIQMTQSPSSLSASVGDRVTITCRASESVDNYGISFMNWYQQKPGKPPKLLIYAASNQGSGVPSRFSGSGSGTDFTFTISSLQPEDIATYYCQQSKAVPRTFGQGTKLEIKR"
0.0012 s⁻¹,2.3 nM,,,,,,"Fab clone 129(T34) (Fab, V domains shown) VH: QVQLVQSGAEVKKPGASVKVSCKASGYTFTSYWMHWVRQAPGQGLEWMGEIYPSNGRTNYNEKFKSRVTMTRDTSTSTVYMQLSSLRSEDTAVYYCARKYYYGNSRRSWYFDVWGQGTTVTVS VL: DIQMTQSPSSLSASVGDRVTITCRASESVDNYGISFMNWYQQKPGQPPKLLIYAASNQGSGVPSRFSGSGSGTDFTFTISSLQPEDIATYYCQQSKTVPRTFGQGTKLEIKR"
0.0034 s⁻¹,6.4 nM,,,,,,"Fab clone 129(T6) (Fab, V domains shown) VH: QVQLVQSGAEVKKPGASVKVSCKASGYTFTSYWMHWVRQAPGQGLEWMGEIYPSNGRTNYNEKFKSRVTMTGDTSTSTVYMQLSSLRSEDTAVYYCARKYYYGNSKRSWYFDVWGQGTTVTVS VL: DIQMTQSPSSLSASVGDRVTITCRASESVDNYGISFMNWYQQKPGQAPKLLIYAASNQGSGVPSRFSGSGSGTDFTFTISSLQPEDIATYYCQQSKEVPRTFGQGTKLEIKR"
0.0015 s⁻¹,3 nM,,,,,,"Fab clone 129(T8)(H9) (Fab, V domains shown) VH: QVQLVQSGAEVKKPGASVKVSCKASGYTFTSYWRHWVRQAPGQGLEWMGEIYPSNGRTNYNEKFKSRATMTGDKSTSTVYMELSSLRSEDTAVYYCARKYYYGNSRRSWYFDVWGQGTTVTVS VL: DIQMTQSPSSLSASVGDRVTITCRASESVDNYGISFMNWYQQKPGKAPKLLIYAASNRGSGVPSRFSGSGSGTDFTFTISSLQPEDIATYYCQQSKTVPRTFGQGTKLEIKR"
0.0003 s⁻¹,0.6 nM,,,,,,"Fab clone 129(T8)(H8xE10)(9A) (Fab, V domains shown) VH: QVQLVQSGAEVKKPGASVKVSCKASGYTFTSYRIHWVRQAPGQGLEWMGEIYPSNSRTNYNEKFKSRATMTRDKSTSTVYMELSSLRSEDTAVYYCARKYYYGNSRRSWYFDVWGQGTTVTVS VL: DIQMTQSPSSLSASVGDRVTITCRASESIDNYGISFLAWYQQKPGKAPKLLIYAASNRGSGVPSRFSGSGSGTDFTFTISSLQPEDIATYYCQQSKTVPRTFGQGTKLEIKR"
